# Data published in paper PMC5604080, “Genetic and Biochemical Characterization of 2-Chloro-5-Nitrophenol Degradation in a Newly Isolated Bacterium, Cupriavidus sp. Strain CNP-8” (Frontiers in Microbiology, 2017).
# Experiments:
# [1] = tested on: O=[N+]([O-])c1ccc(Cl)c(O)c1; assay: purified protein; type: biochemical, Cupriavidus sp. CNP-8; conditions: 0.2 mM NADPH, 50 mM phosphate pH 7.5
# [2] = tested on: O=[N+]([O-])c1cccc(O)c1; assay: purified protein; type: biochemical, Cupriavidus sp. CNP-8; conditions: 0.2 mM NADPH, 50 mM phosphate pH 7.5
# [3] = target: T1, MnpC (H6-MnpC) (Cupriavidus sp. CNP-8, UniProt A0A291LMA7); assay: spectrophotometric turnover, product with λmax […] nm; type: biochemical; conditions: structure analog used in place of unstable aminohydroquinone
# T1 construct: full-length, pET-28a NdeI-XhoI, His6-tagged (H6-MnpC), E. coli Rosetta(DE3)pLysS, Ni-NTA purified, about 35 kDa, single-subunit dioxygenase
# T1 sequence (A0A291LMA7 1-316): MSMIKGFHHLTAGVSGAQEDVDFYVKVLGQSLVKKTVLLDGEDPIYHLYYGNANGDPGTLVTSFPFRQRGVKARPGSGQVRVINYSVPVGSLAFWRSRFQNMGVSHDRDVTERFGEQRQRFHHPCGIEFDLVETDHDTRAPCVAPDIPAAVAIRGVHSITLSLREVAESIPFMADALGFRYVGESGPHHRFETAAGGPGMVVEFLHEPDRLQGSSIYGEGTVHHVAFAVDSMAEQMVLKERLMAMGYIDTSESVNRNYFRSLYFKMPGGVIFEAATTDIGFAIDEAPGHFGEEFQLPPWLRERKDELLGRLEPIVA
Compound,Km [1],Km [2],"spectrophotometric turnover, product with λmax 320 nm [3]"
MnpA (H6-MnpA) (Cupriavidus sp. CNP-8),16.3 ± 2.87 µM,3.4 ± 1.63 µM,–
Oc1ccc(O)cc1 [hydroquinone],–,–,H6-MnpC catalyzed rapid degradation of both CHQ and HQ
Oc1ccc(O)c(Cl)c1 [chlorohydroquinone],–,–,H6-MnpC catalyzed rapid degradation of both CHQ and HQ
